Laboratory results taken from article PMC6358605.
Substitutions are numbered along the chain they refer to. Names may count otherwise. One block for each binder: values may come before it.

Biological target: biotinylated AviTag-BiP^19–413 (NBD), G3I8R9
Experiment: BLI
Details: chain shown with the change; for response: equilibrium signal, read off a plot; for other: K1/2 max: streptavidin biosensors loaded with biotinylated BiP NBD, equilibrium signal vs [MANF] 0-100 µM, parent: 13.9

biotinylated AviTag-BiP^19–413 (NBD), G3I8R9, sequence (G3I8R9 19-413): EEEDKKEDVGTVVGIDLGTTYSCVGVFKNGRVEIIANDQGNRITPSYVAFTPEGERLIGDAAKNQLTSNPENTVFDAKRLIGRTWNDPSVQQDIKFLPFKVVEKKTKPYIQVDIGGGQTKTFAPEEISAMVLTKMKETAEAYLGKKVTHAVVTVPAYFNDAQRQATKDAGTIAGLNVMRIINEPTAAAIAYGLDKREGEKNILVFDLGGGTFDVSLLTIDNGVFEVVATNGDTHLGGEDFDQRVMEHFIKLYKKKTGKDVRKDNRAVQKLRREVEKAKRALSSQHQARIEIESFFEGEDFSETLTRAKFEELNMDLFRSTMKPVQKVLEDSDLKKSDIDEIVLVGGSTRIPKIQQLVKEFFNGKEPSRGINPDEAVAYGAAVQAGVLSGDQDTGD

response (50 µM MANF, parent: est. 0.68): 0.17 nm
response (100 µM MANF, parent: est. 0.78): 0.24 nm
B1: Full-length mouse MANF (wild-type), Q9CXI5 E153A (protein)
chain: LRPGDCEVCISYLGRFYQDLKDRDVTFSPATIEEELIKFCREARGKENRLCYYIGATDDAATKIINEVSKPLAHHIPVEKICEKLKKKDSQICELKYDKQIDLSTVDLKKLRVKELKKILDDWGEMCKGCAAKSDYIRKINELMPKYAPKAASARTDL

response (50 µM MANF, parent: est. 0.68): 0.1 nm
response (100 µM MANF, parent: est. 0.78): 0.13 nm
B2: Full-length mouse MANF (wild-type), Q9CXI5 R133E (protein)
chain: B1 chain with R112E, A132E

response (50 µM MANF, parent: est. 0.68): 0.3 nm
response (100 µM MANF, parent: est. 0.78): 0.42 nm
other: K1/2 max (R2 0.913): 31 µM
B3: Full-length mouse MANF (wild-type), Q9CXI5 K138A (protein)
chain: B1 chain with K99N, K117A, A132E

response (50 µM MANF, parent: est. 0.68): 0.52 nm
response (100 µM MANF, parent: est. 0.78): 0.58 nm
other: K1/2 max (R2 0.978): 15.3 µM
B4: Full-length mouse MANF (wild-type), Q9CXI5 R23A (protein)
chain: B1 chain with R2A, K99N, A132E
